Assay results published in patent US20120121596A1 (published 2012).

Tests used:
[1] = target: T1, monomeric human HER3-ecd (Example 9) (human, UniProt P21860 20-643); test: SPR, both experiments; reference: affinity for EGFR
T1 construct: extracellular domain

[2] = target: T2, monomeric human EGFR-ecd (Example 9) (human, UniProt P00533 25-637); test: SPR BIAcore 2000, DL11f human IgG1 immobilized on CM5, monomeric ecd analyte 0.244-250 nM, 25 C
T2 construct: range 1-637

[3] = target: T1, monomeric human HER3-ecd (Example 9); test: as above
[4] = target: HER3 on cells (MCF7 cells; MDA-175 cells) (UniProt P21860 20-1342, limits assumed); test: cell-based or functional assay
[5] = target: T3, HER2-ECD (human, UniProt P04626 23-652); test: direct phage ELISA, proteins coated at 2 µg/ml, phage-Fab supernatant, OD450;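 further: specificity test of dual-activity clones, with binding assessed across an antigen panel to check whether each recognises only its cognate target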
T3 construct: extracellular domain

[6] = target: T4, hEGFR-ECD-Fc (human EGFR extracellular domain fused to an Fc region of human IgG1) (human, UniProt P00533 25-645); test: as above
T4 construct: extracellular domain; not shown: Fc region of human IgG1

[7] = target: T5, HER3-ECD-Fc (human, UniProt P21860 20-643, limits assumed); test: as above
T5 construct: extracellular domain; also called HER3-FC; HER3-IgG

[8] = target: T6, HER4-ECD-Fc (human, UniProt Q15303 26-651, limits assumed); test: as above
T6 construct: extracellular domain
T6 sequence (looked up): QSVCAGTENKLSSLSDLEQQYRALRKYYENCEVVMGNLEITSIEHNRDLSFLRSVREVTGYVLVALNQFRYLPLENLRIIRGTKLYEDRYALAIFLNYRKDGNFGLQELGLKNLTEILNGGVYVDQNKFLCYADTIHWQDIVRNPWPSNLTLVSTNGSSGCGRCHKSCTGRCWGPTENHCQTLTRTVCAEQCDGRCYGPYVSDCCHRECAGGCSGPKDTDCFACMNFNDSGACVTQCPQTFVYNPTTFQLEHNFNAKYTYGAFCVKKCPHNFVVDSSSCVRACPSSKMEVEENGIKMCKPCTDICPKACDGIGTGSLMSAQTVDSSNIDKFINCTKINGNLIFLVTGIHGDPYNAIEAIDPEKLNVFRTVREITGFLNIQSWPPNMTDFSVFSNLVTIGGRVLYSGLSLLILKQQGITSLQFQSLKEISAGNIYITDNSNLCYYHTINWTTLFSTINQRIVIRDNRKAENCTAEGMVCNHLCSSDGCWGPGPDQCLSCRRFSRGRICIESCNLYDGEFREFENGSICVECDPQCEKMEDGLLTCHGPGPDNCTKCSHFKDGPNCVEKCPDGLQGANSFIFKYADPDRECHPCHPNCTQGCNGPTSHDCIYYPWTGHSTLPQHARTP

[9] = target: T7, Xolair; test: as above
T7 construct: not shown: the constant regions

[10] = target: T8, BSA (bovine, UniProt P02769); test: as above
T8 construct: also called bovine serum albumin

[11] = target: T9, human HER3-Fc (Example 9) (human, UniProt P21860 20-640); test: SPR, both experiments; reference: affinity for EGFR
T9 construct: range 1-640; Produced in CHO cells, protein A purified; also called human HER3-IgG1; not shown: Fc region of human IgG1

[12] = target: T10, human EGFR-Fc (Example 9) (human, UniProt P00533 25-637); test: SPR BIAcore 2000, Fc fusion captured on CM5 with human Antibody Capture Kit, Fab analyte 0.244-250 nM, 25 C, 1:1 Langmuir
T10 construct: range 1-637; Produced in CHO cells, protein A purified; also called Recombinant human EGFR-IgG1; not shown: Fc region of human IgG1

[13] = target: T9, human HER3-Fc (Example 9); test: as above
[14] = target: T11, hEGFR-ECD (human, UniProt P00533 25-645); test: SPR, BIAcore-2000, mIgG D1.5 immobilized on CM5 (~150 RU), EGFR-ECD 12.5-200 nM as analyte, 25 C, 1:1 Langmuir model
T11 construct: extracellular domain

[15] = target: T12, mEGFR-ECD-Fc (murine, UniProt Q01279 25-647); test: competitive ELISA: serial dilutions of mEGFR-ECD-Fc with fixed D1.5 on hEGFR-ECD-Fc coated plate
T12 construct: extracellular domain; also called murine EGFR; not shown: Fc

[16] = target: T5, HER3-ECD-Fc; test: phage solution binding competition ELISA as in Example 1, antigen in solution varied
[17] = target: T11, hEGFR-ECD; test: as above
[18] = target: T13, TGF-α; test: direct phage ELISA on coated proteins as in Example 5, OD450
T13 construct: also called transforming growth factor alpha

[19] = target: T6, HER4-ECD-Fc; test: as above
[20] = target: T7, Xolair; test: as above
[21] = target: T14, mHER3-Fc; test: as above
T14 chain: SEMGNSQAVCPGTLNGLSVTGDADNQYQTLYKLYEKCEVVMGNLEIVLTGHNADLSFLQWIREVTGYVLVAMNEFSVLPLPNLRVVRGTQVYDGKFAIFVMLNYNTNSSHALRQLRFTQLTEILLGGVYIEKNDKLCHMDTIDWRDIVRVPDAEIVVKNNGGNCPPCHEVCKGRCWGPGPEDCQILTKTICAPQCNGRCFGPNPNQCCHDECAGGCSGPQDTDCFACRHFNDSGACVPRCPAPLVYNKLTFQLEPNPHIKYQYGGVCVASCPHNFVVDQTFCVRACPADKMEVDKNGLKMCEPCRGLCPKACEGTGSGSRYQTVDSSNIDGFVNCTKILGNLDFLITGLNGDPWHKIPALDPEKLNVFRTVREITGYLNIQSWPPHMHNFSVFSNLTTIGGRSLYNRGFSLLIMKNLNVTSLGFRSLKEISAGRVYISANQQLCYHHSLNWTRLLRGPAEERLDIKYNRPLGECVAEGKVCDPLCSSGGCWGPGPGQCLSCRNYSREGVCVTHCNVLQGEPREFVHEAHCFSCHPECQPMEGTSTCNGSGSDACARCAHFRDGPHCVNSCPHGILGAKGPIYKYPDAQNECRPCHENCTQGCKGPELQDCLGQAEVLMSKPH

[22] = target: T8, BSA; test: as above
[23] = target: T3, HER2-ECD; test: as above
[24] = target: T4, hEGFR-ECD-Fc (human EGFR extracellular …); test: phage ELISA of clones from plate selection
[25] = target: T11, hEGFR-ECD; test: direct phage ELISA, proteins coated at 2 µg/ml, phage-Fab supernatant, OD450;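 further: specificity test of dual-activity clones, with binding assessed across an antigen panel to check whether each recognises only its cognate target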
[26] = target: T15, Erbitux; test: as above
T15 construct: also called cetuximab; C225; not shown: the constant regions

T8 sequence (P02769 25-607 limits assumed): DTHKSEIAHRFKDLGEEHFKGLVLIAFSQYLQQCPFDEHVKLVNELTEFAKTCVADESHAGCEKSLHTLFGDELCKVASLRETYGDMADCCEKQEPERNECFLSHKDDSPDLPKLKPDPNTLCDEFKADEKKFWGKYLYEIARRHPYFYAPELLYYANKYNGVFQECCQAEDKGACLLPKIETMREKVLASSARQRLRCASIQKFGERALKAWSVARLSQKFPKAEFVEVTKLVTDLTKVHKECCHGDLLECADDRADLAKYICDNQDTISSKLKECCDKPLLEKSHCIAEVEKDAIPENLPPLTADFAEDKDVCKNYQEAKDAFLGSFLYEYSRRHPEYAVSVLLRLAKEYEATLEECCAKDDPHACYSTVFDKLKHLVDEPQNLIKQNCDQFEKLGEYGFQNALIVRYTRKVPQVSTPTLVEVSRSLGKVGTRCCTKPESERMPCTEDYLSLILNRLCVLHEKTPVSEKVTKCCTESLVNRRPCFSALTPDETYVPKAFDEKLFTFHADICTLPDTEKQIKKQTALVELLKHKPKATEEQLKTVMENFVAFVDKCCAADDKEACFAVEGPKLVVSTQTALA

B1: DL11f (human IgG1) (bispecific antibody, V domains shown)
VH: EVQLVESGGGLVQPGGSLRLSCAASGFTLSGDWIHWVRQAPGKGLEWVGEISAAGGYTDYADSVKGRFTISADTSKNTAYLQMNSLRAEDTAVYYCARESRVSFEAAMDYWGQGTLVTVSS
VL: DIQMTQSPSSLSASVGDRVTITCRASQNIATDVAWYQQKPGKAPKLLIYSASFLYSGVPSRFSGSGSGTDFTLTISSLQPEDFATYYCQQSEPEPYTFGQGTKVEIKR
- fold higher affinity for HER3 than for EGFR [1]: 5 to 8 fold
- Kd [2]: 19.9 nM
- Kd [3]: 2.63 nM
- IC50 of inhibition of MDA-175 cell proliferation [4]: 0.8 to 1 µg/mL

B2: D1.5-400 (phage-displayed Fab clone) (Fab, V domains shown)
VH: EVQLVESGGGLVQPGGSLRLSCAASGFTFTGNWIHWVRQAPGKGLEWVGEISPSGGYTDYADSVKGRFTISADTSKNTAYLQMNSLRAEDTAVYYCARESRVSYEAAMDYWGQGTLVTVSS
VL: DIQMTQSPSSLSASVGDRVTITCRASQDVLFYGNVAWYQQKPGKAPKLLIYDGSYLYSGVPSRFSGSGSGTDFTLTISSLQPEDFATYYCQQSYPAPYTFGQGTKVEIKR
notes: EGFR/HER4 clone
- binding result [5]: no binding
- binding result [6]: binds
- binding result [7]: no binding
- binding result [8]: binds
- binding result [9]: no binding
- binding result [10]: no binding

B3: DL11f Fab (Fab, V domains shown)
VH: EVQLVESGGGLVQPGGSLRLSCAASGFTLSGDWIHWVRQAPGKGLEWVGEISAAGGYTDYADSVKGRFTISADTSKNTAYLQMNSLRAEDTAVYYCARESRVSFEAAMDYWGQGTLVTVSS
VL: DIQMTQSPSSLSASVGDRVTITCRASQNIATDVAWYQQKPGKAPKLLIYSASFLYSGVPSRFSGSGSGTDFTLTISSLQPEDFATYYCQQSEPEPYTFGQGTKVEIKR
- fold higher affinity for HER3 than for EGFR [11]: 5 to 8 fold
- Kd [12]: 1.92 nM
- Kd [13]: 0.39 nM

B4: D1.5 (mIgG2A) (antibody, V domains shown)
VH: EVQLVESGGGLVQPGGSLRLSCAASGFTFTGNWIHWVRQAPGKGLEWVGEISPSGGYTDYADSVKGRFTISADTSKNTAYLQMNSLRAEDTAVYYCARESRVSYEAAMDYWGQGTLVTVSS
VL: DIQMTQSPSSLSASVGDRVTITCRASQDVSTAVAWYQQKPGKAPKLLIYSASFLYSGVPSRFSGSGSGTDFTLTISSLQPEDFATYYCQQSYPTPYTFGQGTKVEIKR
notes: also called mIgG D1.5; anti-EGFR mIgG2A
- Kd [14]: 1.2 nM
- binding result [15]: binds

B5: DL11 (phage-displayed Fab clone) (Fab, V domains shown)
VH: EVQLVESGGGLVQPGGSLRLSCAASGFTLSGDWIHWVRQAPGKGLEWLGEISAAGGYTDYADSVKGRFTISADTSKNTAYLQMNSLRAEDTAVYYCARESRVSFEAAMDYWGQGTLVTVSS
VL: DIQMTQSPSSLSASVGDRVTITCRASQDLATDVAWYQQKPGKAPKLLIYSASFLYSGVPSRFSGSGSGTDFTLTISSLQPEDFATYYCQQSEPEPYTFGQGTKVEIKR
notes: single Fab on phage
- IC50 [16]: 0.43 nM
- IC50 [17]: 5.7 nM
- binding result [18]: no binding
- binding result [19]: no binding
- binding result [20]: no binding
- binding result [21]: no binding
- binding result [22]: no binding

B6: DL7 (phage-displayed Fab clone) (Fab, V domains shown)
VH: EVQLVESGGGLVQPGGSLRLSCAASGFTLSGDWIHWVRQAPGKGLEWVGEISAAGGYTDYADSVKGRFTISADTSKNTAYLQMNSLRAEDTAVYYCAREARVSYEAAMDYWGQGTLVTVSS
VL: DIQMTQSPSSLSASVGDRVTITCRASQDLATDVAWYQQKPGKAPKLLIYSASFLYSGVPSRFSGSGSGTDFTLTISSLQPEDFATYYCQQSEPEPYTFGQGTKVEIKR
- IC50 [16]: 0.25 nM
- IC50 [17]: 6.1 nM
- binding result [18]: no binding
- binding result [23]: no binding
- binding result [19]: no binding
- binding result [20]: no binding
- binding result [21]: no binding
- binding result [22]: no binding

B7: D1.5-201 (phage-displayed Fab clone) (Fab, V domains shown)
VH: EVQLVESGGGLVQPGGSLRLSCAASGFTFTGNWIHWVRQAPGKGLEWVGEISPSGGYTDYADSVKGRFTISADTSKNTAYLQMNSLRAEDTAVYYCARESRVSYEAAMDYWGQGTLVTVSS
VL: DIQMTQSPSSLSASVGDRVTITCRASQAVWGGYIAPVAWYQQKPGKAPKLLIYDGSYLYSGVPSRFSGSGSGTDFTLTISSLQPEDFATYYCQQRLPTPYTFGQGTKVEIKR
notes: EGFR/HER2 dual-specific clone from the D1.5 light chain library
- binding result [24]: binds
- binding result [5]: binds
- binding result [7]: no binding
- binding result [8]: no binding
- binding result [25]: binds
- binding result [26]: no binding
- binding result [10]: no binding
